# From US20060105414
# Columns and labels:
# [1] = target: T1, GST-IκBα (1-54), regulatory domain of IκBα, P25963
# T1 chain: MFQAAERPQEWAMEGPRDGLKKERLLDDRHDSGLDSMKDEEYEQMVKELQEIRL
# [2] = target: T2, GST-NF-κB2 (754-900) (p100C), C terminal regulatory domain of NF-κB2, Q00653
# T2 chain: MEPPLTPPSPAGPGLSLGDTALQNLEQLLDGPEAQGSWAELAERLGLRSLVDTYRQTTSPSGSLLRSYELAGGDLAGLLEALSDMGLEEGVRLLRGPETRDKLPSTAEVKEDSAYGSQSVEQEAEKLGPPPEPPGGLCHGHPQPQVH
Protein,phosphorylation of GST-IκBα (1-54) in an in vitro kinase assay [1],phosphorylation of the NF-κB2 C-terminal regulatory domain in vitro [2],phosphorylation of GST-NF-κB2 (754-900) (p100C) in an in vitro kinase assay [2]
"IKKβ, recombinant, chromatographically pure, produced in Sf9 cells using baculoviruses (protein) MSWSPSLTTQTCGAWEMKERLGTGGFGNVIRWHNQETGEQIAIKQCRQELSPRNRERWCLEIQIMRRLTHPNVVAARDVPEGMQNLAPNDLPLLAMEYCQGGDLRKYLNQFENCCGLREGAILTLLSDIASALRYLHENRIIHRDLKPENIVLQQGEQRLIHKIIDLGYAKELDQGSLCTSFVGTLQYLAPELLEQQKYTVTVDYWSFGTLAFECITGFRPFLPNWQPVQWHSKVRQKSEVDIVVSEDLNGTVKFSSSLPYPNNLNSVLAERLEKWLQLMLMWHPRQRGTDPTYGPNGCFKALDDILNLKLVHILNMVTGTIHTYPVTEDESLQSLKARIQQDTGIPEEDQELLQEAGLALIPDKPATQCISDGKLNEGHTLDMDLVFLFDNSKITYETQISPRPQPESVSCILQEPKRNLAFFQLRKVWGQVWHSIQTLKEDCNRLQQGQRAAMMNLLRNNSCLSKMKNSMASMSQQLKAKLDFFKTSIQIDLEKYSEQTEFGITSDKLLLAWREMEQAVELCGRENEVKLLVERMMALQTDIVDLQRSPMGRKQGGTLDDLEEQARELYRRLREKPRDQRTEGDSQEMVRLLLQAIQSFEKKVRVIYTQLSKTVVCKQKALELLPKVEEVVSLMNEDEKTVVRLQEKRQKELWNLLKIACSKVRGPVSGSPDSMNASRLSQPGQLMSQPSTASNSLPEPAKKSEELVAEAHNLCTLLENAIQDTVREQDQSFTALDWSWLQTEEEEHSCLEQAS",the regulatory domain of Iκ Bα was phosphorylated more efficiently by IKKβ than by IKKα,–,–
"NF-κB inducing kinase (NIK), recombinant, immunopurified, produced in Sf9 cells using baculoviruses (protein) MAVMEMACPGAPGSAVGQQKELPKAKEKTPPLGKKQSSVYKLEAVEKSPVFCGKWEILNDVITKGTAKEGSEAGPAAISIIAQAECENSQEFSPTFSERIFIAGSKQYSQSESLDQIPNNVAHATEGKMARVCWKGKRRSKARKKRKKKSSKSLAHAGVALAKPLPRTPEQESCTIPVQEDESPLGAPYVRNTPQFTKPLKEPGLGQLCFKQLGEGLRPALPRSELHKLISPLQCLNHVWKLHHPQDGGPLPLPTHPFPYSRLPHPFPFHPLQPWKPHPLESFLGKLACVDSQKPLPDPHLSKLACVDSPKPLPGPHLEPSCLSRGAHEKFSVEEYLVHALQGSVSSGQAHSLTSLAKTWAARGSRSREPSPKTEDNEGVLLTEKLKPVDYEYREEVHWATHQLRLGRGSFGEVHRMEDKQTGFQCAVKKVRLEVFRAEELMACAGLTSPRIVPLYGAVREGPWVNIFMELLEGGSLGQLVKEQGCLPEDRALYYLGQALEGLEYLHSRRILHGDVKADNVLLSSDGSHAALCDFGHAVCLQPDGLGKSLLTGDYIPGTETHMAPEVVLGRSCDAKVDVWSSCCMMLHMLNGCHPWTQFFRGPLCLKIASEPPPVREIPPSCAPLTAQAIQEGLRKEPIHRVSAAELGGKVNRALQQVGGLKSPWRGEYKEPRHPPPNQANYHQTLHAQPRELSPRAPGPRPAEETTGRAPKLQPPLPPEPPEPNKSPPLTLSKEESGMWEPLPLSSLEPAPARNPSSPERKATVPEQELQQLEIELFLNSLSQPFSLEEQEQILSCLSIDSLSLSDDSEKNPSKASQSSRDTLSSGVHSWSSQAEARSSSWNMVLARGRPTDTPSYFNGVKVQIQSLNGEHLHIREFHRVKVGDIATGISSQIPAAAFSLVTKDGQPVRYDMEVPDSGIDLQCTLAPDGSFAWSWRVKHGQLENRP",not at all by NIK,both NIK and IKKα phosphorylate the C-terminal regulatory domain of NF-κB2,–
"IκB kinase α (IKKα), recombinant, chromatographically pure, produced in Sf9 cells using baculoviruses (protein) MERPPGLRPGAGGPWEMRERLGTGGFGNVCLYQHRELDLKIAIKSCRLELSTKNRERWCHEIQIMKKLNHANVVKACDVPEELNILIHDVPLLAMEYCSGGDLRKLLNKPENCCGLKESQILSLLSDIGSGIRYLHENKIIHRDLKPENIVLQDVGGKIIHKIIDLGYAKDVDQGSLCTSFVGTLQYLAPELFENKPYTATVDYWSFGTMVFECIAGYRPFLHHLQPFTWHEKIKKKDPKCIFACEEMSGEVRFSSHLPQPNSLCSLIVEPMENWLQLMLNWDPQQRGGPVDLTLKQPRCFVLMDHILNLKIVHILNMTSAKIISFLLPPDESLHSLQSRIERETGINTGSQELLSETGISLDPRKPASQCVLDGVRGCDSYMVYLFDKSKTVYEGPFASRSLSDCVNYIVQDSKIQLPIIQLRKVWAEAVHYVSGLKEDYSRLFQGQRAAMLSLLRYNANLTKMKNTLISASQQLKAKLEFFHKSIQLDLERYSEQMTYGISSEKMLKAWKEMEEKAIHYAEVGVIGYLEDQIMSLHAEIMELQKSPYGRRQGDLMESLEQRAIDLYKQLKHRPSDHSYSDSTEMVKIIVHTVQSQDRVLKELFGHLSKLLGCKQKIIDLLPKVEVALSNIKEADNTVMFMQGKRQKEIWHLLKIACTQSSARSLVGSSLEGAVTPQTSAWLPPTSAEHDHSLSCVVTPQDGETSAQMIEENLNCLGHLSTIIHEANEEQGNSMMNLDWSWLTE",the regulatory domain of Iκ Bα was phosphorylated more efficiently by IKKβ than by IKKα,IKK is a more effective NF-B2 C-terminal kinase than NIK,the C terminal regulatory domain of NF-κB2 was phosphorylated most efficiently by IKKα
